Experimental findings from the Human Domainome abundance scans (Beltran et al. 2025) are described below.

± gives the uncertainty stated by the source.

Sequences and labels used below:
B1: Zinc finger homeobox protein 4, residues 2183 to 2238; numbered along this chain, Q86UP3 (parent)
chain: SSRTRFTDYQLRVLQDFFDTNAYPKDDEIEQLSTVLNLPTRVIVVWFQNARQKARK

Variants of B1 are the subject of this data set. Description: abundance fitness (aPCA) (normalised: wild type 0, dead -1); higher = more abundant; growth selection in yeast, the domain comes from the species named. The note with it: Homo sapiens.
For SSRTRFTDYQLRVLQDFFDTNAYPKDDEIEQLSTVLNLPTRDIVVWFQNARQKARK [V42D], the abundance fitness turned out to be 0.141 ± 0.15.

Take SSRTRFTDYQLRVLQDFFDTNAYPKDDEIEQLSTVLNLPTRFIVVWFQNARQKARK [V42F]: the abundance fitness was -0.415 ± 0.19.

SSRTRFTDYQLRVLQDFFDTNAYPKDDEIEQLSTVLNLPTRGIVVWFQNARQKARK [V42G]: the abundance fitness is -0.065 ± 0.086.

In the case of SSRTRFTDYQLRVLQDFFDTNAYPKDDEIEQLSTVLNLPTRWIVVWFQNARQKARK [V42W], the abundance fitness is -0.039 ± 0.12.

In the case of SSRTRFTDYQLRVLQDFFDTNAYPKDDEIEQLSTVLNLPTRRIVVWFQNARQKARK [V42R], the abundance fitness is -0.2 ± 0.091.

For SSRTRFTDYQLRVLQDFFDTNAYPKDDEIEQLSTVLNLPTRQIVVWFQNARQKARK [V42Q], the abundance fitness is -0.143 ± 0.14.

Regarding SSRTRFTDYQLRVLQDFFDTNAYPKDDEIEQLSTVLNLPTRTIVVWFQNARQKARK [V42T], the abundance fitness was 0.043 ± 0.15.

For SSRTRFTDYQLRVLQDFFDTNAYPKDDEIEQLSTVLNLPTRCIVVWFQNARQKARK [V42C], the abundance fitness was -0.263 ± 0.2.

On to SSRTRFTDYQLRVLQDFFDTNAYPKDDEIEQLSTVLNLPTRAIVVWFQNARQKARK [V42A], for which the abundance fitness was -0.093 ± 0.12.

As to SSRTRFTDYQLRVLQDFFDTNAYPKDDEIEQLSTVLNLPTRSIVVWFQNARQKARK [V42S], the abundance fitness was -0.077 ± 0.12.

Consider SSRTRFTDYQLRVLQDFFDTNAYPKDDEIEQLSTVLNLPTRYIVVWFQNARQKARK [V42Y], for which the abundance fitness is -0.18 ± 0.21.

SSRTRFTDYQLRVLQDFFDTNAYPKDDEIEQLSTVLNLPTRIIVVWFQNARQKARK [V42I]: the abundance fitness was 0.043 ± 0.14.

In the case of SSRTRFTDYQLRVLQDFFDTNAYPKDDEIEQLSTVLNLPTRHIVVWFQNARQKARK [V42H], the abundance fitness amounted to 0.03 ± 0.16.

Regarding SSRTRFTDYQLRVLQDFFDTNAYPKDDEIEQLSTVLNLPTRNIVVWFQNARQKARK [V42N], the abundance fitness is -0.345 ± 0.27.

In the case of SSRTRFTDYQLRVLQDFFDTNAYPKDDEIEQLSTVLNLPTREIVVWFQNARQKARK [V42E], the abundance fitness came out at 0.23 ± 0.14.

Consider SSRTRFTDYQLRVLQDFFDTNAYPKDDEIEQLSTVLNLPTRPIVVWFQNARQKARK [V42P], for which the abundance fitness is -0.194 ± 0.16.

In the case of SSRTRFTDYQLRVLQDFFDTNAYPKDDEIEQLSTVLNLPTRKIVVWFQNARQKARK [V42K], the abundance fitness was -0.236 ± 0.17.

As to SSRTRFTDYQLRVLQDFFDTNAYPKDDEIEQLSTVLNLPTRLIVVWFQNARQKARK [V42L], the abundance fitness was -0.155 ± 0.1.

As to SSRTRFTDYQLRVLQDFFDTNAYPKDDEIEQLSTVLNLPTRVLVVWFQNARQKARK [I43L], the abundance fitness was -0.059 ± 0.1.

As for SSRTRFTDYQLRVLQDFFDTNAYPKDDEIEQLSTVLNLPTRVQVVWFQNARQKARK [I43Q], the abundance fitness is -0.964 ± 0.24.

SSRTRFTDYQLRVLQDFFDTNAYPKDDEIEQLSTVLNLPTRVFVVWFQNARQKARK [I43F]: the abundance fitness is -0.412 ± 0.23.

For the variant SSRTRFTDYQLRVLQDFFDTNAYPKDDEIEQLSTVLNLPTRVSVVWFQNARQKARK [I43S], the abundance fitness is -0.766 ± 0.16.

As to SSRTRFTDYQLRVLQDFFDTNAYPKDDEIEQLSTVLNLPTRVMVVWFQNARQKARK [I43M], the abundance fitness is -0.394 ± 0.16.

As to SSRTRFTDYQLRVLQDFFDTNAYPKDDEIEQLSTVLNLPTRVVVVWFQNARQKARK [I43V], the abundance fitness was -0.12 ± 0.11.

Take SSRTRFTDYQLRVLQDFFDTNAYPKDDEIEQLSTVLNLPTRVKVVWFQNARQKARK [I43K]: the abundance fitness is -1.22 ± 0.26.

As to SSRTRFTDYQLRVLQDFFDTNAYPKDDEIEQLSTVLNLPTRVWVVWFQNARQKARK [I43W], the abundance fitness is -1.07 ± 0.24.

Consider SSRTRFTDYQLRVLQDFFDTNAYPKDDEIEQLSTVLNLPTRVDVVWFQNARQKARK [I43D], for which the abundance fitness is -0.881 ± 0.29.

With SSRTRFTDYQLRVLQDFFDTNAYPKDDEIEQLSTVLNLPTRVEVVWFQNARQKARK [I43E], the abundance fitness was -0.69 ± 0.16.

For SSRTRFTDYQLRVLQDFFDTNAYPKDDEIEQLSTVLNLPTRVRVVWFQNARQKARK [I43R], the abundance fitness is -1 ± 0.13.

Regarding SSRTRFTDYQLRVLQDFFDTNAYPKDDEIEQLSTVLNLPTRVCVVWFQNARQKARK [I43C], the abundance fitness is -0.193 ± 0.37.

In the case of SSRTRFTDYQLRVLQDFFDTNAYPKDDEIEQLSTVLNLPTRVHVVWFQNARQKARK [I43H], the abundance fitness was -1.18 ± 0.29.

On to SSRTRFTDYQLRVLQDFFDTNAYPKDDEIEQLSTVLNLPTRVTVVWFQNARQKARK [I43T], for which the abundance fitness worked out at 0.032 ± 0.13.

Turning to SSRTRFTDYQLRVLQDFFDTNAYPKDDEIEQLSTVLNLPTRVPVVWFQNARQKARK [I43P], the abundance fitness was -0.869 ± 0.29.

Take SSRTRFTDYQLRVLQDFFDTNAYPKDDEIEQLSTVLNLPTRVGVVWFQNARQKARK [I43G]: the abundance fitness was -1.01 ± 0.15.

As for SSRTRFTDYQLRVLQDFFDTNAYPKDDEIEQLSTVLNLPTRVNVVWFQNARQKARK [I43N], the abundance fitness was -1.01 ± 0.31.

Regarding SSRTRFTDYQLRVLQDFFDTNAYPKDDEIEQLSTVLNLPTRVAVVWFQNARQKARK [I43A], the abundance fitness is -0.259 ± 0.12.

In the case of SSRTRFTDYQLRVLQDFFDTNAYPKDDEIEQLSTVLNLPTYVIVVWFQNARQKARK [R41Y], the abundance fitness was determined as 0.017 ± 0.17.

As to SSRTRFTDYQLRVLQDFFDTNAYPKDDEIEQLSTVLNLPTWVIVVWFQNARQKARK [R41W], the abundance fitness was -0.335 ± 0.13.

As for SSRTRFTDYQLRVLQDFFDTNAYPKDDEIEQLSTVLNLPTVVIVVWFQNARQKARK [R41V], the abundance fitness is -0.008 ± 0.09.

For SSRTRFTDYQLRVLQDFFDTNAYPKDDEIEQLSTVLNLPTRVIGVWFQNARQKARK [V44G], the abundance fitness is -0.059 ± 0.096.

Take SSRTRFTDYQLRVLQDFFDTNAYPKDDEIEQLSTVLNLPTRVIHVWFQNARQKARK [V44H]: the abundance fitness is -0.027 ± 0.078.

For SSRTRFTDYQLRVLQDFFDTNAYPKDDEIEQLSTVLNLPTRVIAVWFQNARQKARK [V44A], the abundance fitness was -0.067 ± 0.077.

As for SSRTRFTDYQLRVLQDFFDTNAYPKDDEIEQLSTVLNLPTRVIKVWFQNARQKARK [V44K], the abundance fitness is -0.22 ± 0.11.

On to SSRTRFTDYQLRVLQDFFDTNAYPKDDEIEQLSTVLNLPTRVICVWFQNARQKARK [V44C], for which the abundance fitness was found to be 0.028 ± 0.1.

Turning to SSRTRFTDYQLRVLQDFFDTNAYPKDDEIEQLSTVLNLPTRVIEVWFQNARQKARK [V44E], the abundance fitness came to 0.125 ± 0.13.

With SSRTRFTDYQLRVLQDFFDTNAYPKDDEIEQLSTVLNLPTRVIDVWFQNARQKARK [V44D], the abundance fitness is -0.064 ± 0.11.

For the variant SSRTRFTDYQLRVLQDFFDTNAYPKDDEIEQLSTVLNLPTRVIIVWFQNARQKARK [V44I], the abundance fitness came out at 0.05 ± 0.079.
